Consider 85 variants from the supplement of paper PMC10567573.

Sequences and labels used below:
B1: MLL5 (parent)
chain: TYLCERCQPRNLDKERAVLLQRRK
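Further: lentivirally expressed fusions sorted by FACS into six bins by GFP to DsRed ratio, PSI derived from sequencing read proportions per bin multiplied by bin number.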

The data set covers variants of B1. The experiment in a line: protein stability index of a GFP-peptide fusion (GPS, HEK-293T) (PSI 1-6); higher = more stable. As to conditions: c terminus: a fixed tail appended.
Regarding TYLCERCQPRRLDKERAVLLQRRK [N11R], the protein stability index turned out to be 2.15.
The same measure for TYLCERCQPRLLDKERAVLLQRRK [N11L]: 2.12; for TYLCERCQPRNLDKERACLLQRRK [V18C]: 2.11.
The value for TYLCERCQPRNLDKERAFLLQRRK [V18F] was 1.96; that for TYLCERCQPRNLDKERASLLQRRK [V18S] was 2.21.
The value for TYLCERCQPRNLDKERALLLQRRK [V18L] was 3.05; that for TYLCERCQPRNLDKERATLLQRRK [V18T] was 2.82.
TYLCERCQPRNLDKERAQLLQRRK [V18Q]: the protein stability index stood at 2.19.
Take TYLCERCQPRNLDKERAELLQRRK [V18E]: the protein stability index was determined as 2.52.
As for TYLCERCQPRNLDKERARLLQRRK [V18R], the protein stability index turned out to be 3.18.
In the case of TYLCERCQPRNLDKERAVLLQRRY [K24Y], the protein stability index came out at 1.91.
Turning to TYLCERCQPRNLDKERAVLLQRRD [K24D], the protein stability index worked out at 2.36.
The value for TYLCERCQPRNLDKERAVLLQRRW [K24W] was 3.28; that for TYLCERCQPRNLDKERAVLLQRRG [K24G] was 1.69; that for TYLCERCQPRNLDKERAVLLQRRL [K24L] was 2.17.
The value for TYLCERCQPRNLDKERAVLYQRRK [L20Y] was 1.76.
Regarding TYLCERCQPRNLDKERAVLMQRRK [L20M], the protein stability index amounted to 2.4.
The same measure for TYLCERCQPRNLDKERAVLFQRRK [L20F]: 2.3.
For TYLCERCQPRNLDKERAVLEQRRK [L20E], the protein stability index stood at 2.7.
The same measure for TYLCERCQPRNLDKERAVLSQRRK [L20S]: 1.9; for TYLCERCQPRNLDKERAVLLYRRK [Q21Y]: 2.04.
For the variant TYLCERCQPRNLDKERAVLLCRRK [Q21C], the protein stability index was determined as 2.02.
The same measure for TYLCERCQPRNLDKERAVLLNRRK [Q21N]: 2.42; for TYLCERCQPRNLDKERAVLLERRK [Q21E]: 2.09.
In the case of TYLCERCQPRNLDKERAVLLQYRK [R22Y], the protein stability index came out at 1.97.
Turning to TYLCERCQPRNLDKERAVLLQARK [R22A], the protein stability index was 2.
Regarding TYLCERCQPRNLDKERAVLLQSRK [R22S], the protein stability index was determined as 2.34.
The value for TYLCERCQPRNLDKERAVLLQHRK [R22H] was 2.28.
With TYLCERCQPRNLDKERAVLLQLRK [R22L], the protein stability index came out at 1.89.
Turning to TYLCERCQPRNLDKERAVLLQKRK [R22K], the protein stability index worked out at 2.03.
Turning to TYLCERCQPRNLDKEPAVLLQRRK [R16P], the protein stability index was found to be 2.24.
Turning to TYLCERCQPRNLDKEKAVLLQRRK [R16K], the protein stability index was determined as 2.1.
The value for TYLCERCQPRNLDKELAVLLQRRK [R16L] was 3.06.
The same measure for TYLCERCQPRNLDKEHAVLLQRRK [R16H]: 2.61.
Regarding TYLCERCQPRNLDKEIAVLLQRRK [R16I], the protein stability index came out at 1.94.
The value for TYLCERCQPRNLDKECAVLLQRRK [R16C] was 1.45; that for TYLCERCQPRNLDMERAVLLQRRK [K14M] was 3.36; that for TYLCERCQPRNLDDERAVLLQRRK [K14D] was 1.98.
The value for TYLCERCQPRNLDWERAVLLQRRK [K14W] was 2.89; that for TYLCERCQPRNLDFERAVLLQRRK [K14F] was 2.34.
The value for TYLCERCQPRNLDAERAVLLQRRK [K14A] was 2.29; that for TYLCERCQPRNLDLERAVLLQRRK [K14L] was 3.62.
With TYLCERCQPRNLDYERAVLLQRRK [K14Y], the protein stability index came out at 2.64.
Regarding TYLRERCQPRNLDKERAVLLQRRK [C4R], the protein stability index worked out at 3.67.
TYLKERCQPRNLDKERAVLLQRRK [C4K]: the protein stability index stood at 3.15.
With TYLSERCQPRNLDKERAVLLQRRK [C4S], the protein stability index stood at 3.95.
The value for TYLQERCQPRNLDKERAVLLQRRK [C4Q] was 3.56; that for TYLVERCQPRNLDKERAVLLQRRK [C4V] was 3.12; that for TYLLERCQPRNLDKERAVLLQRRK [C4L] was 2.71.
On to TYLCFRCQPRNLDKERAVLLQRRK [E5F], for which the protein stability index was determined as 1.94.
The same measure for TYLCDRCQPRNLDKERAVLLQRRK [E5D]: 2.87.
Turning to TYLCKRCQPRNLDKERAVLLQRRK [E5K], the protein stability index amounted to 1.79.
In the case of TYLCQRCQPRNLDKERAVLLQRRK [E5Q], the protein stability index came to 1.76.
The same measure for TYLCSRCQPRNLDKERAVLLQRRK [E5S]: 2.23.
As for TYLCNRCQPRNLDKERAVLLQRRK [E5N], the protein stability index is 1.94.
The value for TYLCHRCQPRNLDKERAVLLQRRK [E5H] was 2.12; that for TYLCIRCQPRNLDKERAVLLQRRK [E5I] was 2.47; that for TYLCCRCQPRNLDKERAVLLQRRK [E5C] was 1.63.
In the case of TYLCTRCQPRNLDKERAVLLQRRK [E5T], the protein stability index worked out at 1.61.
In the case of TYLCLRCQPRNLDKERAVLLQRRK [E5L], the protein stability index was determined as 1.73.
The value for TYDCERCQPRNLDKERAVLLQRRK [L3D] was 2.99; that for TYNCERCQPRNLDKERAVLLQRRK [L3N] was 3.55.
The value for TYTCERCQPRNLDKERAVLLQRRK [L3T] was 1.98; that for TYHCERCQPRNLDKERAVLLQRRK [L3H] was 2.44; that for TYVCERCQPRNLDKERAVLLQRRK [L3V] was 2.17.
Take TYYCERCQPRNLDKERAVLLQRRK [L3Y]: the protein stability index was 2.56.
On to TYWCERCQPRNLDKERAVLLQRRK [L3W], for which the protein stability index amounted to 1.96.
The same measure for TYGCERCQPRNLDKERAVLLQRRK [L3G]: 2.85; for WYLCERCQPRNLDKERAVLLQRRK [T1W]: 3.05; for DYLCERCQPRNLDKERAVLLQRRK [T1D]: 2.73.
The value for FYLCERCQPRNLDKERAVLLQRRK [T1F] was 1.27.
Turning to YYLCERCQPRNLDKERAVLLQRRK [T1Y], the protein stability index was determined as 2.14.
As for NYLCERCQPRNLDKERAVLLQRRK [T1N], the protein stability index turned out to be 2.13.
The value for SYLCERCQPRNLDKERAVLLQRRK [T1S] was 1.87; that for GYLCERCQPRNLDKERAVLLQRRK [T1G] was 1.82.
With AYLCERCQPRNLDKERAVLLQRRK [T1A], the protein stability index stood at 2.29.
The same measure for MYLCERCQPRNLDKERAVLLQRRK [T1M]: 1.39; for KYLCERCQPRNLDKERAVLLQRRK [T1K]: 2.48; for TYLCERCQPRNHDKERAVLLQRRK [L12H]: 1.98.
With TYLCERCQPRNMDKERAVLLQRRK [L12M], the protein stability index was found to be 3.49.
The value for TYLCERCQPRNCDKERAVLLQRRK [L12C] was 1.85; that for TYLCERCQPRNADKERAVLLQRRK [L12A] was 2.56.
On to TYLCERCQPRNVDKERAVLLQRRK [L12V], for which the protein stability index worked out at 2.22.
The same measure for TYLCERCQPRNFDKERAVLLQRRK [L12F]: 2.11; for TYLCERCQPRNNDKERAVLLQRRK [L12N]: 2.25.
